Assay results published in patent US20120095193A1 (published 2012).

T1: human ADAMTS5 (human, UniProt Q9UNA0 262-622, limits assumed)
T1 construct: Octet and ELISA used 'recombinant human ADAMTS5'; also called recombinant human ADAMTS5; ADAMTS5 (R&D Systems 2198-AD)
T1 sequence: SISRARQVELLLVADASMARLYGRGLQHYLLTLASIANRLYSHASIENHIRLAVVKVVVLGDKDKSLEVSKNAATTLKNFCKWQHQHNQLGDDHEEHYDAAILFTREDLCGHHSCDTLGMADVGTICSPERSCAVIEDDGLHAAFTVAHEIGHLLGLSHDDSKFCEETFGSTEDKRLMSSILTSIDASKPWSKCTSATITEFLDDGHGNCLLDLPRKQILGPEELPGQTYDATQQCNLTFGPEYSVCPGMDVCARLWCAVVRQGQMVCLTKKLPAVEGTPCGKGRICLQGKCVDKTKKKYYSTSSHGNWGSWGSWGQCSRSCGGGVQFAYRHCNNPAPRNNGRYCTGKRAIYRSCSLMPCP


Biological target: T1, human ADAMTS5
Experiment: Biacore, mAb from culture supernatant captured on anti-human IgG, ADAMTS5 (R&D 2198-AD) at 64 nM, 1:1 fit
Protocol: Anti-human IgG (Biacore™, BR-1008-39) was immobilized on a CM5 chip by primary amine coupling. This surface was then used to capture the humanized antibodies, ADAMTS5 (R&D Systems 2198-AD) was then passed over the captured antibody at a single concentration of 64 nM, regeneration was carried out using 100 mM phosphoric acid followed by 3M MgCl₂. The binding curves were double referenced with buffer injection (i.e. 0 nM) and the data was fitted to the T100 analysis software using the 1:1 model. The run was carried out at 25° C., using HBS-EP as the running buffer. All antibodies were captured from tissue culture supernatants unless specified.

Row | Kd | koff | kon | Binder
1 | 1.05 nM | 0.00157 s⁻¹ | 1.49e+06 M⁻¹ s⁻¹ | BPC1644 (antibody, human IgG1, kappa, V domains shown, Humanized, human gamma 1 / kappa; also called 7B4 H3L1) VH: EVQLVESGGGLVQPGGSLRLSCAASGFTSSDAWMDWVRQAPGKGLEWVAEIRNKANNHARHYAESVKGRFTISRDNAKNSLYLQMNSLRAEDTAVYYCTRTYYYGSSYGYCDVWGQGTLVTVSS VL: DIQMTQSPSSLSASVGDRVTITCRTSENIYSYLAWYQQKPGKAPKLLVYNAKTLAEGVPSRFSGSGSGTDFTLTISSLQPEDFATYYCQHHYGTPWTFGQGTKLEIKR
2 | 0.86 nM | 0.000963 s⁻¹ | 1.12e+06 M⁻¹ s⁻¹ | BPC1637 (antibody, human IgG1, kappa, V domains shown, Humanized, human gamma 1 / kappa; also called 7B4 H3L0) VH: EVQLVESGGGLVQPGGSLRLSCAASGFTSSDAWMDWVRQAPGKGLEWVAEIRNKANNHARHYAESVKGRFTISRDNAKNSLYLQMNSLRAEDTAVYYCTRTYYYGSSYGYCDVWGQGTLVTVSS VL: DIQMTQSPSSLSASVGDRVTITCRTSENIYSYLAWYQQKPGKAPKLLIYNAKTLAEGVPSRFSGSGSGTDFTLTISSLQPEDFATYYCQHHYGTPWTFGQGTKLEIKR
3 | 0.978 nM | 0.00145 s⁻¹ | 1.48e+06 M⁻¹ s⁻¹ | BPC1647 (antibody, human IgG1, kappa, V domains shown, Humanized, human gamma 1 / kappa; also called 7B4 H6L1) VH: EVQLVESGGGLVQPGGSLRLSCAASGFTSSDAWMDWVRQAPGKGLEWVAEIRNKANNHARHYAESVKGRFTISRDDAKNSVYLQMNSLRAEDTAVYYCTRTYYYGSSYGYCDVWGQGTLVTVSS VL: DIQMTQSPSSLSASVGDRVTITCRTSENIYSYLAWYQQKPGKAPKLLVYNAKTLAEGVPSRFSGSGSGTDFTLTISSLQPEDFATYYCQHHYGTPWTFGQGTKLEIKR
4 | 1.05 nM | 0.00143 s⁻¹ | 1.36e+06 M⁻¹ s⁻¹ | BPC1643 (antibody, human IgG1, kappa, V domains shown, Humanized, human gamma 1 / kappa; also called 7B4 H2L1) VH: EVQLVESGGGLVQPGGSLRLSCAASGFTSSDAWMDWVRQAPGKGLEWVAEIRNKANNHARHYAESVKGRFTISRDNAKNSLYLQMNSLRAEDTAVYYCARTYYYGSSYGYCDVWGQGTLVTVSS VL: DIQMTQSPSSLSASVGDRVTITCRTSENIYSYLAWYQQKPGKAPKLLVYNAKTLAEGVPSRFSGSGSGTDFTLTISSLQPEDFATYYCQHHYGTPWTFGQGTKLEIKR
5 | 1.04 nM | 0.00116 s⁻¹ | 1.12e+06 M⁻¹ s⁻¹ | BPC1645 (antibody, human IgG1, kappa, V domains shown, Humanized, human gamma 1 / kappa; also called 7B4 H4L1) VH: EVQLVESGGGLVQPGGSLRLSCAASGFTSSDAWMDWVRQAPGKGLEWVAEIRNKANNHARHYAESVKGRFTISRDDAKNSLYLQMNSLRAEDTAVYYCTRTYYYGSSYGYCDVWGQGTLVTVSS VL: DIQMTQSPSSLSASVGDRVTITCRTSENIYSYLAWYQQKPGKAPKLLVYNAKTLAEGVPSRFSGSGSGTDFTLTISSLQPEDFATYYCQHHYGTPWTFGQGTKLEIKR
6 | 1.21 nM | 0.000951 s⁻¹ | 788000 M⁻¹ s⁻¹ | BPC1648 (antibody, human IgG1, kappa, V domains shown, Humanized, human gamma 1 / kappa; also called 7B4 H0L2) VH: EVQLVESGGGLVQPGGSLRLSCAASGFTFSDAWMDWVRQAPGKGLEWVAEIRNKANNHARHYAESVKGRFTISRDNAKNSLYLQMNSLRAEDTAVYYCARTYYYGSSYGYCDVWGQGTLVTVSS VL: DIQMTQSPSSLSASVGDRVTITCRTSENIYSYLAWYQQKPGKAPQLLVYNAKTLAEGVPSRFSGSGSGTDFTLTISSLQPEDFATYYCQHHYGTPWTFGQGTKLEIKR
7 | 1.32 nM | 0.000945 s⁻¹ | 714000 M⁻¹ s⁻¹ | BPC1641 (antibody, human IgG1, kappa, V domains shown, Humanized, human gamma 1 / kappa; also called 7B4 H0L1) VH: EVQLVESGGGLVQPGGSLRLSCAASGFTFSDAWMDWVRQAPGKGLEWVAEIRNKANNHARHYAESVKGRFTISRDNAKNSLYLQMNSLRAEDTAVYYCARTYYYGSSYGYCDVWGQGTLVTVSS VL: DIQMTQSPSSLSASVGDRVTITCRTSENIYSYLAWYQQKPGKAPKLLVYNAKTLAEGVPSRFSGSGSGTDFTLTISSLQPEDFATYYCQHHYGTPWTFGQGTKLEIKR
8 | 1.03 nM | 0.00184 s⁻¹ | 1.79e+06 M⁻¹ s⁻¹ | BPC1646 (antibody, human IgG1, kappa, V domains shown, Humanized, human gamma 1 / kappa; also called 7B4 H5L1) VH: EVQLVESGGGLVQPGGSLRLSCAASGFTSSDAWMDWVRQAPGKGLEWVAEIRNKANNHARHYAESVKGRFTISRDNAKNSVYLQMNSLRAEDTAVYYCTRTYYYGSSYGYCDVWGQGTLVTVSS VL: DIQMTQSPSSLSASVGDRVTITCRTSENIYSYLAWYQQKPGKAPKLLVYNAKTLAEGVPSRFSGSGSGTDFTLTISSLQPEDFATYYCQHHYGTPWTFGQGTKLEIKR
9 | 1.08 nM | 0.000849 s⁻¹ | 787000 M⁻¹ s⁻¹ | BPC1640 (antibody, human IgG1, kappa, V domains shown, Humanized, human gamma 1 / kappa; also called 7B4 H6L0) VH: EVQLVESGGGLVQPGGSLRLSCAASGFTSSDAWMDWVRQAPGKGLEWVAEIRNKANNHARHYAESVKGRFTISRDDAKNSVYLQMNSLRAEDTAVYYCTRTYYYGSSYGYCDVWGQGTLVTVSS VL: DIQMTQSPSSLSASVGDRVTITCRTSENIYSYLAWYQQKPGKAPKLLIYNAKTLAEGVPSRFSGSGSGTDFTLTISSLQPEDFATYYCQHHYGTPWTFGQGTKLEIKR
10 | 0.95 nM | 0.000831 s⁻¹ | 875000 M⁻¹ s⁻¹ | BPC1638 (antibody, human IgG1, kappa, V domains shown, Humanized, human gamma 1 / kappa; also called 7B4 H4L0) VH: EVQLVESGGGLVQPGGSLRLSCAASGFTSSDAWMDWVRQAPGKGLEWVAEIRNKANNHARHYAESVKGRFTISRDDAKNSLYLQMNSLRAEDTAVYYCTRTYYYGSSYGYCDVWGQGTLVTVSS VL: DIQMTQSPSSLSASVGDRVTITCRTSENIYSYLAWYQQKPGKAPKLLIYNAKTLAEGVPSRFSGSGSGTDFTLTISSLQPEDFATYYCQHHYGTPWTFGQGTKLEIKR
11 | 0.836 nM | 0.000896 s⁻¹ | 1.07e+06 M⁻¹ s⁻¹ | BPC1636 (antibody, human IgG1, kappa, V domains shown, Humanized, human gamma 1 / kappa; also called 7B4 H2L0) VH: EVQLVESGGGLVQPGGSLRLSCAASGFTSSDAWMDWVRQAPGKGLEWVAEIRNKANNHARHYAESVKGRFTISRDNAKNSLYLQMNSLRAEDTAVYYCARTYYYGSSYGYCDVWGQGTLVTVSS VL: DIQMTQSPSSLSASVGDRVTITCRTSENIYSYLAWYQQKPGKAPKLLIYNAKTLAEGVPSRFSGSGSGTDFTLTISSLQPEDFATYYCQHHYGTPWTFGQGTKLEIKR
12 | 0.964 nM | 0.000894 s⁻¹ | 927000 M⁻¹ s⁻¹ | BPC1639 (antibody, human IgG1, kappa, V domains shown, Humanized, human gamma 1 / kappa; also called 7B4 H5L0) VH: EVQLVESGGGLVQPGGSLRLSCAASGFTSSDAWMDWVRQAPGKGLEWVAEIRNKANNHARHYAESVKGRFTISRDNAKNSVYLQMNSLRAEDTAVYYCTRTYYYGSSYGYCDVWGQGTLVTVSS VL: DIQMTQSPSSLSASVGDRVTITCRTSENIYSYLAWYQQKPGKAPKLLIYNAKTLAEGVPSRFSGSGSGTDFTLTISSLQPEDFATYYCQHHYGTPWTFGQGTKLEIKR
13 | 1.36 nM | 0.00121 s⁻¹ | 887000 M⁻¹ s⁻¹ | BPC1642 (antibody, human IgG1, kappa, V domains shown, Humanized, human gamma 1 / kappa; also called 7B4 H1L1) VH: EVQLVESGGGLVQPGGSLRLSCAASGFTFSDAWMDWVRQAPGKGLEWVAEIRNKANNHARHYAESVKGRFTISRDNAKNSLYLQMNSLRAEDTAVYYCTRTYYYGSSYGYCDVWGQGTLVTVSS VL: DIQMTQSPSSLSASVGDRVTITCRTSENIYSYLAWYQQKPGKAPKLLVYNAKTLAEGVPSRFSGSGSGTDFTLTISSLQPEDFATYYCQHHYGTPWTFGQGTKLEIKR
14 | 1.17 nM | 0.000826 s⁻¹ | 704000 M⁻¹ s⁻¹ | BPC1635 (antibody, human IgG1, kappa, V domains shown, Humanized, human gamma 1 / kappa; also called 7B4 H1L0) VH: EVQLVESGGGLVQPGGSLRLSCAASGFTFSDAWMDWVRQAPGKGLEWVAEIRNKANNHARHYAESVKGRFTISRDNAKNSLYLQMNSLRAEDTAVYYCTRTYYYGSSYGYCDVWGQGTLVTVSS VL: DIQMTQSPSSLSASVGDRVTITCRTSENIYSYLAWYQQKPGKAPKLLIYNAKTLAEGVPSRFSGSGSGTDFTLTISSLQPEDFATYYCQHHYGTPWTFGQGTKLEIKR
15 | 0.624 nM | 0.000395 s⁻¹ | 633000 M⁻¹ s⁻¹ | BPC1656 (antibody, human IgG1, kappa, V domains shown, Humanized, human gamma 1 / kappa; also called 12F4 H1L0) VH: EVQLLESGGGLVQPGGSLRLSCAASGFTFSDAWMDWVRQAPGKGLEWVSEIRHKANDHAIFYDESVKGRFTISRDNSKNTLYLQMNSLRAEDTAVYYCTSPFAYWGQGTLVTVSS VL: DIQMTQSPSSLSASVGDRVTITCKASQSVGTTIVWYQQKPGKAPKLLIYSASNRHTGVPSRFSGSGSGTDFTLTISSLQPEDFATYYCQQYTSYPFTFGQGTKLEIKR
16 | 0.312 nM | 0.00014 s⁻¹ | 448000 M⁻¹ s⁻¹ | BPC1658 (antibody, human IgG1, kappa, V domains shown, Humanized, human gamma 1 / kappa; also called 12F4 H3L0) VH: EVQLLESGGGLVQPGGSLRLSCAASGFTFSDAWMDWVRQAPGKGLEWVAEIRHKANDHAIFYDESVKGRFTISRDNSKNTVYLQMNSLRAEDTAVYYCTSPFAYWGQGTLVTVSS VL: DIQMTQSPSSLSASVGDRVTITCKASQSVGTTIVWYQQKPGKAPKLLIYSASNRHTGVPSRFSGSGSGTDFTLTISSLQPEDFATYYCQQYTSYPFTFGQGTKLEIKR
17 | 0.129 nM | 7.54e-05 s⁻¹ | 585000 M⁻¹ s⁻¹ | BPC1657 (antibody, human IgG1, kappa, V domains shown, Humanized, human gamma 1 / kappa; also called 12F4 H2L0) VH: EVQLLESGGGLVQPGGSLRLSCAASGFTFSDAWMDWVRQAPGKGLEWVSEIRHKANDHAIFYDESVKGRFTISRDDSKNTLYLQMNSLRAEDTAVYYCTSPFAYWGQGTLVTVSS VL: DIQMTQSPSSLSASVGDRVTITCKASQSVGTTIVWYQQKPGKAPKLLIYSASNRHTGVPSRFSGSGSGTDFTLTISSLQPEDFATYYCQQYTSYPFTFGQGTKLEIKR
